B1: CIB1 (parent)
chain: DLSRLVNCLTGEGEDTRLSASEMK
B2: HSP90AB1 (parent)
chain: TLRQKAEADKNDKAVKDLVVLLFE

Variants of: B1
Experiment: protein stability index of a GFP-peptide fusion (GPS, HEK-293T) (PSI 1-6); higher = more stable
Conditions: c terminus: a fixed tail appended
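Also: lentivirally expressed fusions sorted by FACS into six bins by GFP to DsRed ratio, PSI derived from sequencing read proportions per bin multiplied by bin number.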

Protein stability index: each site, then its substitutions
K24: H 2.37 | I 1.81 | V 2.04 | F 2.57 | C 3.03 | A 3.25 | Q 3.31 | E 3.9 | S 2.89 | P 2.67 | M 2.45 | N 2.99 | W 1.86 | Y 2.23
S21: D 3.57 | K 4.3 | F 2.36 | A 2.1 | E 4.15 | V 2.17 | Y 3.14 | H 3.01 | M 2.98 | G 1.68 | R 1.9 | C 2.63 | P 3.5 | L 2.06 | T 3.1
L18: V 3.63 | N 3.75 | P 3.79 | Y 3.12 | W 2.78 | R 4.11 | S 3.06 | A 3.34 | H 4.09 | D 4.07 | F 1.85 | K 3.36 | M 2.49 | E 2.48 | G 1.4 | Q 2.96
S19: D 3.17 | M 2.57 | N 4.35 | Q 2.78 | F 4.13 | I 2.62 | C 1.89 | R 2.6 | P 3.61 | E 3.61 | W 2.26 | H 3.01 | Y 2.29 | T 2.01 | G 3.56 | A 3.2
E22: I 2.83 | F 2.21 | M 2.46 | A 3.08 | R 2.88 | Y 3.08 | T 3.61 | C 2.76 | H 2.49 | N 3.54 | L 2.29 | G 2.81 | S 3.35 | P 4.12 | K 4.44
M23: C 2.85 | V 3.17 | T 3.14 | W 2.81 | A 3.76 | H 2.71 | N 3.46 | Y 2.7 | K 4.14 | F 3.12 | I 3.03 | L 3.23 | Q 2.6 | D 2.32 | R 2.68
R17: S 2.84 | W 2.33 | M 3.08 | E 4.53 | K 2.82 | L 2.59 | Q 3.1 | N 2.76 | Y 2.81 | V 2.65 | P 3.35 | I 2.97 | F 2.99
A20: H 2.98 | T 1.89 | P 3.15 | Q 3.71 | M 2.19 | S 2.9 | K 1.61 | D 2.92 | N 2.75 | E 4.11 | C 2.31 | Y 2.15 | V 2.17 | G 3.69 | W 3.38 | F 1.8

Variants of: B2
Experiment: as above
Conditions: c terminus: a fixed tail appended

Protein stability index of substitutions, site by site:
R3: C 2.75 | I 3.18 | D 3.57 | T 3.59 | F 2.8 | S 3.58 | Q 3.11 | L 3.11
L18: G 3.69 | R 3.19 | Y 2.87 | F 2.24 | V 2.24 | H 3.3 | C 2.85
L22: R 3.9 | Q 4.84 | E 4.86 | V 3.73 | P 4.97 | K 4.47 | D 4.86 | T 3.96 | N 4.2 | S 4.34
D17: S 2.58 | N 2.69 | E 2.96 | I 2.35 | G 2.26 | A 1.99 | C 1.83 | L 1.49
D9: E 2.74 | K 2.51 | I 2.26 | P 2.48 | G 3.17 | T 2.35
T1: H 3.09 | K 2.49 | G 3.53 | D 3.58 | S 4.38 | A 3.35 | M 3.02 | Q 3.54 | P 3.57 | V 2.52
F23: D 5.38 | Q 4.55 | S 3.95 | A 3.7 | K 4.69 | R 3.79 | T 4.76 | W 2.56 | L 3.27
V15: G 3.48 | P 2.54 | T 3.11 | I 2.48 | F 2.91 | M 3.47 | Q 2.86 | E 3.37 | N 3.12 | K 3.27
D12: N 2.62 | F 2.24 | P 2.49 | A 2.44 | T 2.22 | C 2.59 | W 2.07 | I 2
L2: G 3.13 | I 3.16 | D 3.13 | Y 2.64 | N 2.79 | F 2.65 | V 3.15 | Q 3.62 | W 2.43 | C 3.12
A6: P 3.29 | M 2.93 | C 2.91 | W 3.32 | K 2.71 | G 2.72 | R 2.69
L21: T 3.5 | G 3.63 | A 2.67 | K 2.91 | P 4.61
A14: W 2.68 | K 3.1 | L 2.63 | N 2.56 | E 3.64 | F 2.02
K10: I 3.06 | N 2.98 | Q 2.98 | D 3.11 | P 3.68 | W 2.52 | L 2.61 | G 2.63 | E 2.73 | T 2.92 | F 2.53
Q4: F 2.58 | P 3.06 | W 2.71 | K 3.26 | Y 2.37 | C 2.51
V20: A 4.47 | G 3.64 | T 3.48 | M 3.77 | Q 4.1 | E 5.2 | D 5.3 | W 2.58 | Y 2.7 | C 3.53 | P 4.05
K16: E 3.06 | I 2.24 | D 3.36 | F 3.28 | M 2.86 | A 2.87 | Q 3.75 | Y 2.24
K13: N 2.85 | M 2.75 | W 1.73 | S 2.99 | E 3.39 | I 2.47 | G 2.77 | C 2.84 | A 3.19 | V 2.91
V19: R 4.18 | S 4.08 | A 3.72 | D 4.61 | N 3.91 | C 3.16 | W 2.7 | T 4.13 | F 2.96 | K 4.26 | E 5.04 | H 4.22
N11: R 3.15 | G 3.13 | V 2.89 | A 3 | D 2.84 | K 2.43 | I 2.98 | L 2.83 | P 2.58 | C 2.88
E24: V 2.01 | K 2.06 | M 1.83 | F 1.83 | G 2.26 | C 1.43 | Q 2.64 | P 1.71 | T 2.14
E7: Q 1.9 | N 2.72 | L 2.54 | M 2.48 | A 2.67 | V 2.63 | P 2.58 | K 2 | Y 1.79 | S 2.67 | C 2.28 | W 1.81
K5: R 3 | E 3.38 | V 3.24 | H 3.01 | S 3.36 | I 3.03 | D 3.88 | A 3.12 | G 3.87 | Y 3.26 | Q 4.01 | F 2.75
A8: Q 3.24 | E 3.16 | P 2.21 | C 2.87 | D 3.57 | G 3.9 | F 2.89 | R 2.87 | L 2.38

From the supplement of paper PMC10567573
